Laboratory results from publication PMC7441159, “The metal binding site composition of the cation diffusion facilitator protein MamM cytoplasmic domain impacts its metal responsivity” (Scientific Reports, 2020).
Numbering of substitutions follows the chain as printed. Names may count otherwise.

B1: MamM CTD H264E (domain or fragment, Magnetospirillum gryphiswaldense MSR-1, UniProt V6F235 215-318, looked up)
chain: EAVQNRIVEAAERVPGVRGVIHLRARYVGQDIWADMIIGVDPENTVEQAEEICEAVQAAVCGKIRRIESLHVSAEAREIGDTTKPSFSDQPLSFDEVMLSKVDN
notes: MamM cytoplasmic C-terminal domain (CTD), Magnetospirillum gryphiswaldense MSR-1, UniProt Q6NE57 residues 215-318; A thrombin site follows the His tag
B2: MamM CTD D249N (domain or fragment, Magnetospirillum gryphiswaldense MSR-1, UniProt V6F235 215-318, looked up)
chain: B1 chain with D35N, E50H
notes: as for B1
B3: MamM CTD E289H (domain or fragment, Magnetospirillum gryphiswaldense MSR-1, UniProt V6F235 215-318, looked up)
chain: B1 chain with E50H, E75H
notes: as for B1
B4: MamM CTD E289D (domain or fragment, Magnetospirillum gryphiswaldense MSR-1, UniProt V6F235 215-318, looked up)
chain: B1 chain with E50H, E75D
notes: as for B1
B5: MamM CTD D249H-H285D (domain or fragment, Magnetospirillum gryphiswaldense MSR-1, UniProt V6F235 215-318, looked up)
chain: B1 chain with D35H, E50H, H71D
notes: as for B1
B6: MamM CTD D249E (domain or fragment, Magnetospirillum gryphiswaldense MSR-1, UniProt V6F235 215-318, looked up)
chain: B1 chain with D35E, E50H
notes: as for B1
B7: MamM CTD D249H (domain or fragment, Magnetospirillum gryphiswaldense MSR-1, UniProt V6F235 215-318, looked up)
chain: B1 chain with D35H, E50H
notes: as for B1
B8: MamM CTD H285D (domain or fragment, Magnetospirillum gryphiswaldense MSR-1, UniProt V6F235 215-318, looked up)
chain: B1 chain with E50H, H71D
notes: as for B1
B9: MamM CTD H264E-E289H (domain or fragment, Magnetospirillum gryphiswaldense MSR-1, UniProt V6F235 215-318, looked up)
chain: B1 chain with E75H
notes: MamM cytoplasmic C-terminal domain (CTD), Magnetospirillum gryphiswaldense MSR-1, UniProt Q6NE57 residues 215-318; A thrombin site follows the His tag; also called E289H-H264E

Molecular target: the molecule itself
Test: crystal structure; homodimer seen in the crystal; vapor diffusion at 293 K, protein at 20 mg/mL in 10 mM Tris pH 8.0, 150 mM NaCl, 5 mM β-mercaptoethanol and 3.375 mM metal solution (ZnCl2, CdCl2, MnCl2, NiCl2 or CuSO4)

Binding result, binds:
B1, B2, B3, B4, B5, B6, B7, B8, B9
